Experimental data taken from patent publication US20220281976A1 (Alector, published 2022).
Residue numbers refer to the chain shown, from its start.

T1: mouse CD33 Fc fusion protein (mouse, UniProt Q63994 18-240, limits assumed)
T1 construct: also called mCD33-Fc
T1 sequence: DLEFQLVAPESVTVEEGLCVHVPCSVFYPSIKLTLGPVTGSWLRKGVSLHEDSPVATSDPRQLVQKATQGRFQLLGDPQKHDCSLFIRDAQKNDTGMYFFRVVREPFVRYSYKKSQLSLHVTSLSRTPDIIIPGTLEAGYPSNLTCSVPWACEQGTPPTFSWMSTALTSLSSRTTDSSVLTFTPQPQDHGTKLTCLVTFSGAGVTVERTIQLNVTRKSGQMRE

B1: C-22 (antibody, V domains shown)
VH: QVQLQESGPGLVKPSETLSLTCAVSGYSISSGYYWGWIRQPPGKGLEWIGSIYHSGNTYYNPSLKSRVTISVDTSKNQFSLKLSSVTAADTAVYYCARDGRYSSSGELYYGMDVWGQGTTVTVSS
VL: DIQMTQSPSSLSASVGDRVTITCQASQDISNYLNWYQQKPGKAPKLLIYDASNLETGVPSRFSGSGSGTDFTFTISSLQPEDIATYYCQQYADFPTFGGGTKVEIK
notes: human IgG1
B2: C-15 (antibody, V domains shown)
VH: QVQLVESGGGVVQPGRSLRLSCAASGFTFSSYGMHWVRQAPGKGLEWVAVIWYDGSNKYYADSVKGRFTISRDNSKNTLYLQMNSLRAEDTAVYYCAKGVGYDTGTDMDVWGKGTTVTVSS
VL: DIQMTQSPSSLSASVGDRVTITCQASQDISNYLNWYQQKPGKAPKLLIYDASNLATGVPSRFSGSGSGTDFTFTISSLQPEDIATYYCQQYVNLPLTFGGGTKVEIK
notes: human IgG1
B3: C-16 (antibody, V domains shown)
VH: EVQLVESGGGLVQPGGSLRLSCAASGFTFSSYWMSWVRQAPGKGLEWVANINQDGSEKYYVDSVKGRFTISRDNAKNSLYLQMNSLRAEDTAVYYCAREGSDRHPFDYWGQGTLVTVSS
VL: DIQMTQSPSSLSASVGDRVTITCRASQSISSYLNWYQQKPGKAPKLLIYAASSLQSGVPSRFSGSGSGTDFTLTISSLQPEDFATYYCQQAYLVPLTFGGGTKVEIK
notes: human IgG1
B4: C-23 (antibody, V domains shown)
VH: QVQLQESGPGLVKPSETLSLTCAVSGYSISSGYYWGWIRQPPGKGLEWIGTIYHSGSTYYNPSLKSRVTISVDTSKNQFSLKLSSVTAADTAVYYCAREVGVVGALPYFDYWGQGTLVTVSS
VL: B3 VL with A50G, Y92S, L93S, V94S, L96P
notes: human IgG1
B5: C-20 (antibody, V domains shown)
VH: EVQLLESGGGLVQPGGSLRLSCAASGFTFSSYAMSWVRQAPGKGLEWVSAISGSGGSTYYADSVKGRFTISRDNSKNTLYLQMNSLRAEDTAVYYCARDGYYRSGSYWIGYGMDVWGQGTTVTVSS
VL: EIVLTQSPGTLSLSPGERATLSCRASQSVSSSFLAWYQQKPGQAPRLLIYGASSRATGIPDRFSGSGSGTDFTLTISRLEPEDFAVYYCQQVDSYPPTFGGGTKVEIK
notes: human IgG1

The binders below were run against T2, human CD33 (human, UniProt P20138 18-364) (assay: flow cytometry, human primary dendritic cells;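 also: binding of anti-CD33 antibodies (10 ug/ml, 1 h on ice) to human primary dendritic cells, detected with a PE-labelled secondary antibody, reported as flow cytometry MFI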).
T2 construct: CD33 on human primary dendritic cells, macrophages, monocytes and T cells and on CHO cells expressing recombinant human CD33; also called Siglec-3; hCD33
T2 sequence (P20138 18-364): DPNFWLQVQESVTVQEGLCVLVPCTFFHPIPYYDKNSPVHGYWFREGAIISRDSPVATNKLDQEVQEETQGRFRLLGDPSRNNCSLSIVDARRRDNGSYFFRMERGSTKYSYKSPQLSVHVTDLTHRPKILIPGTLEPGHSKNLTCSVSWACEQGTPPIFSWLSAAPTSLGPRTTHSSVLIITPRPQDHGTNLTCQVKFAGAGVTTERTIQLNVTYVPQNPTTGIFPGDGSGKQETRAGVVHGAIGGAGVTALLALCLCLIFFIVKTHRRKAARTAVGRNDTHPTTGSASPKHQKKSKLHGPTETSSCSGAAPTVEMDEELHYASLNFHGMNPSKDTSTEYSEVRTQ
Description: Initial characterization of CD33 antibodies involved determining their ability to bind CD33 expressed on a CHO cell line, on human primary monocytes, human primary macrophages, human primary dendritic cells, and on human primary T cells. Cells were harvested, plated at 10⁶/ml in a 96 well plate, and incubated in 100 ul PBS containing 2% FBS, 2 mM EDTA and 10 ug/ml Mab and Fc blocking reagent for 1 hour in ice. Cells were washed twice and incubated in 100 ul PBS containing 2% FBS, 2 mM EDTA and 5 ug/ml PE-conjugated secondary antibody for 30 minutes on ice. Cells were washed twice in cold PBS and analyze by flow cytometry on a BD FACS Canto. Data analysis and calculation of MFI values was performed with FlowJo (TreeStar) software version 10.0.7.

Row | DC MFI | Binder
1 | 1650 | B1
2 | 2020 | B2
3 | 1750 | B3
4 | 1050 | B4
5 | 1700 | B5

What follows are binders tested against T3, human CD33 Fc fusion protein (human, UniProt P20138 18-259) (assay: ForteBio BLI or MSD-SET, IgG, avid;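 also: Anti-CD33 IgG affinity by BLI, IgG captured on AHQ sensors with antigen in solution and a one-to-one kinetic fit, or by MSD solution equilibrium titration with quadratic fit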).
T3 construct: also called hCD33-Fc; human CD33/Fc chimera (R&D Systems)
T3 sequence (P20138 18-259 limits assumed): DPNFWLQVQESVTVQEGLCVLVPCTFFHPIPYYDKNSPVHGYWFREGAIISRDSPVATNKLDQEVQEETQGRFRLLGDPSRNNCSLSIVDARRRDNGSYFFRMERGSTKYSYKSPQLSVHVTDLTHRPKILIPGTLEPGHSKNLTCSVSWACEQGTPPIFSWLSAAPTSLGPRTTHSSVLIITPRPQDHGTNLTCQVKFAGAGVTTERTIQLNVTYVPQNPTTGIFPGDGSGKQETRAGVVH

Row | Kd [nM] | Binder
6 | 0.445 | B1
7 | 1.82 | B2
8 | 1.35 | B3
9 | 3.39 | B4
10 | 0.304 | B5

The binders below were run against T2, human CD33 (assay: cell-based or functional assay).

Row | Percent CD33 Surface Expression, DC % CD33 [%] | Percent CD33 Surface Expression, Macrophage % CD33 [%] | Percent CD33 Surface Expression, Monocyte % CD33 [%] | Binder
11 | 17 | 44 | 40.7 | B1
12 | 17 | 42 | 32.6 | B2
13 | 19.5 | 62.6 | 42.4 | B3
14 | 69.5 | – | 71.3 | B4
15 | 30.2 | 54.3 | 53.9 | B5

These binders were tested against T3, human CD33 Fc fusion protein (assay: RBC adhesion to plate-bound CD33-Fc; antibody 0.5 ug/ml;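 also: Plate-coated CD33-Fc preincubated 1 h with antibody, then red blood cells added for 1 h at room temperature, adherent cells lysed and quantified via peroxidase activity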).

Row | Percent RBC Binding to CD33 [%] | Binder
16 | 11.5 | B1
17 | 15.3 | B2
18 | 17.2 | B3
19 | 13.8 | B4
20 | 12.5 | B5

What follows are binders tested against T4, human monomeric His tagged CD33 protein (human, UniProt P20138 18-259) (assay: ForteBio BLI or MSD-SET, IgG, monomeric antigen;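 also: BLI: antibodies captured on AHQ sensors, 100 nM antigen association 5 min, dissociation 5 min, 1:1 fit. MSD-SET: antigen fixed at 50 pM, antibody titrated, quadratic fit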).
T4 construct: also called hCD33-His
T4 sequence (P20138 18-259 limits assumed): as above

Row | Kd [nM] | Binder
21 | 1.97 | B1
22 | 6.55 | B2
23 | 5.87 | B3
24 | 21.1 | B4
25 | 0.958 | B5

The binders below were run against T2, human CD33 (assay: flow cytometry, human primary macrophages;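 also: binding of CD33 antibodies at 10 µg/ml to human primary macrophages, 1 h on ice, detected with PE-labelled secondary antibody by flow cytometry, reported as MFI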).

Row | Macrophage MFI | Binder
26 | 912 | B1
27 | 883 | B2
28 | 711 | B3
29 | 771 | B4
30 | 730 | B5

What follows are binders tested against T2, human CD33 (assay: flow cytometry, human primary monocytes;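 also: binding of anti-CD33 antibodies at 10 ug/ml to human primary monocytes, 1 h on ice, detected by PE-labelled secondary antibody, flow cytometry readout as mean fluorescence intensity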).
Design: reference not given here

Row | Monocyte MFI | Binder
31 | 188 | B1
32 | 191 | B2
33 | 133 | B3
34 | 128 | B4
35 | 196 | B5

The binders below were run against T2, human CD33 (assay: flow cytometry, human primary T cells;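 also: binding of anti-CD33 antibodies at 10 ug/ml to human primary T cells, 1 h on ice, detected with PE-labelled secondary antibody, read as flow cytometry MFI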).

Row | T cell MFI | Binder
36 | 207 | B1
37 | 206 | B2
38 | 229 | B3
39 | 242 | B4
40 | 205 | B5

The binders below were run against T3, human CD33 Fc fusion protein (assay: RBC adhesion to plate-bound CD33-Fc; antibody 1.0 ug/ml;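 also: red blood cells adhering to plate-coated CD33-Fc after 1 h antibody pretreatment, then 1 h at room temperature, bound cells read as peroxidase activity after lysis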).
Description: Briefly, 5 ug/ml CD33-Fc was coated overnight at RT in 96 well Immunolon plates, then washed with PBS, blocked for one hour with binding buffer (PBS containing %0.25 BSA 1 mM CaCl₂). CD33 antibodies (0.5 ug/ml or 1.0 ug/ml) or Fabs (25 ug/ml) were bound for one hour at RT with gentle rocking. After removal of unbound antibody, red blood cells were added to each well at a concentration of 3.0×10⁶ cells per ml and incubated at RT for one hour. Unbound RBCs were then carefully washed off 3× with PBS, and water was added to each well for hypotonic lysis of bound RBCs. The plate was transferred to −80° C. for 10 minutes, followed by 37° C. for 15 minutes. Bound RBCs were detected by peroxidase activity, followed by 2N sulfuric acid to stop the reaction.

Row | Percent RBC Binding to CD33 [%] | Binder
41 | 9.95 | B1
42 | 8.77 | B2
43 | 7.69 | B3
44 | 8.42 | B4
45 | 9.4 | B5

The binders below were run against T1, mouse CD33 Fc fusion protein (assay: ForteBio BLI or MSD-SET).

Row | binding result | Binder
46 | no binding (tested: 100 nM) | B1
47 | no binding (tested: 100 nM) | B2
48 | no binding (tested: 100 nM) | B3
49 | no binding (tested: 100 nM) | B4
50 | no binding (tested: 100 nM) | B5
